Assay [1] addresses Actin purified from rabbit skeletal muscle (F-actin filaments) (rabbit) (UniProt P68135). Briefly: transient kinetics, quenching of pyrene-actin fluorescence; myosin rapidly mixed with MgATP, then with pyrene-labelled actin (0-50 uM; single filaments or fascin bundles) with high MgADP to stop further cycling.
In assay [2] the target is Fascin-bundled F-actin filaments (rabbit | not stated) (UniProt P68135). The assay is described as above.
Assay [3] has as its target myosin X anti-parallel coiled-coil (Homo sapiens) (UniProt Q9HD67). The following applies: cited from earlier work.

As to “Human myosin X MD-3IQ-SAH (S1, truncated at Gln 851) (from UniProt Q9HD67 1-851; P0DP23 1-149) (complex)”, the rate of pyrene-actin fluorescence quenching is 18 s⁻¹ in assay [1] and 17 s⁻¹ in assay [2].
In the same order, the values of “MyoX-HMM-A938 (truncated human Myo10 HMM, amino acids 1-938, 19 amino-acid linker, Leucine zipper, AVI tag, Flag tag) (from UniProt Q9HD67 1-938; P0DP23 1-149) (complex)” are 19 s⁻¹ and 34 s⁻¹.
Turning to “myosin X anti-parallel coiled-coil (from UniProt Q9HD67)”, the Kd (usually the free concentration of one partner at which half of the binding sites on the other are occupied at equilibrium, for simple one-to-one binding) in assay [3] is 600 nM.
